We go through 94 variants from the supplement of paper PMC10567573.

B1: PBXIP1 (parent)
chain: EKQKQPRWREGTKDSHDPLPSWAE
B2: BEX1 (parent)
chain: EENMERIGEEVRQLMEKLREKQLS
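Also: lentivirally expressed fusions sorted by FACS into six bins by GFP to DsRed ratio, PSI derived from sequencing read proportions per bin multiplied by bin number.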

In the first series the parent is B1. In words: protein stability index of a GFP-peptide fusion (GPS, HEK-293T) (PSI 1-6); higher = more stable. The following applies: c terminus: a fixed tail appended.
On to EKQKQPLWREGTKDSHDPLPSWAE [R7L], for which the protein stability index was determined as 1.32. On to EKQKQPMWREGTKDSHDPLPSWAE [R7M], for which the protein stability index was found to be 1.94. The same measure, in the same setting: the value for EKQKQPYWREGTKDSHDPLPSWAE [R7Y] was 1.47; that for EKQKQPIWREGTKDSHDPLPSWAE [R7I] was 1.96. Still for that read-out and setting: the same measure for EKQKQPHWREGTKDSHDPLPSWAE [R7H]: 2.05; for EKQKQPFWREGTKDSHDPLPSWAE [R7F]: 2.54. Same read-out and setting: the value for EKQKQPTWREGTKDSHDPLPSWAE [R7T] was 1.57.

For EKQKQPPWREGTKDSHDPLPSWAE [R7P], the protein stability index was 2.33. Still for that read-out and setting: the value for EKQKQPKWREGTKDSHDPLPSWAE [R7K] was 2.02.

The variants in a further series derive from B2. Described as above. The following applies: c terminus: a fixed tail appended.
Take EENMERIGEEVRQLMEKLREKNLS [Q22N]: the protein stability index was found to be 5.16. On the same count and under the same terms, the value for EENMERIGEEVRQLMEKLREKPLS [Q22P] was 3.67. Same read-out and setting: the same measure for EENMERIGEEVRQLMEKLREKALS [Q22A]: 2.82; for EENMERIGEEVRQLMEKLREKGLS [Q22G]: 4.18. Regarding EENMERIGEEVRQLMEKEREKQLS [L18E], the protein stability index is 5.35.

Consider EENMERIGEEVRQLMEKWREKQLS [L18W], for which the protein stability index came out at 4.84.

Regarding EENMERIGEEVRQLMEKCREKQLS [L18C], the protein stability index came out at 3.82.

Regarding EENMERIGEEVRQLMEKHREKQLS [L18H], the protein stability index came to 5.04.

Take EENMERIGEEVRQLMEKTREKQLS [L18T]: the protein stability index is 5.53. As for EENMERIGEEVRQLMEKLREKQAS [L23A], the protein stability index came out at 4.63. Same read-out and setting: the value for EENMERIGEEVRQLMEKLREKQWS [L23W] was 4.68; that for EENMERIGEEVRQLMEKLREKQES [L23E] was 4.46.

On to EENMERIGEEVRQLMEKLREKQIS [L23I], for which the protein stability index amounted to 5.26. Still for that read-out and setting: the same measure for EENMERIGEEVRQLMEKLREKQDS [L23D]: 5.21. The same measure, in the same setting: the same measure for YENMERIGEEVRQLMEKLREKQLS [E1Y]: 4.14; for FENMERIGEEVRQLMEKLREKQLS [E1F]: 4.32.

Consider KENMERIGEEVRQLMEKLREKQLS [E1K], for which the protein stability index stood at 3.81. The same measure, in the same setting: the value for CENMERIGEEVRQLMEKLREKQLS [E1C] was 4.29; that for LENMERIGEEVRQLMEKLREKQLS [E1L] was 3.54; that for EENMERTGEEVRQLMEKLREKQLS [I7T] was 5.18. Same read-out and setting: the same measure for EENMERYGEEVRQLMEKLREKQLS [I7Y]: 4.92.

Turning to EENMERFGEEVRQLMEKLREKQLS [I7F], the protein stability index amounted to 4.78.

As for EENMERIGFEVRQLMEKLREKQLS [E9F], the protein stability index is 3.7. With EENMERIGAEVRQLMEKLREKQLS [E9A], the protein stability index came out at 4.76.

In the case of EENMERIGDEVRQLMEKLREKQLS [E9D], the protein stability index stood at 3.63. Take EENMERIGSEVRQLMEKLREKQLS [E9S]: the protein stability index is 4.51. Still for that read-out and setting: the value for EENSERIGEEVRQLMEKLREKQLS [M4S] was 5.45. On the same count and under the same terms, the value for EENEERIGEEVRQLMEKLREKQLS [M4E] was 5.3. Still for that read-out and setting: the value for EENLERIGEEVRQLMEKLREKQLS [M4L] was 4.16; that for EENKERIGEEVRQLMEKLREKQLS [M4K] was 5.35. With EMNMERIGEEVRQLMEKLREKQLS [E2M], the protein stability index came to 4.05. In the case of EFNMERIGEEVRQLMEKLREKQLS [E2F], the protein stability index worked out at 4.46. The same measure, in the same setting: the same measure for EANMERIGEEVRQLMEKLREKQLS [E2A]: 2.97; for EQNMERIGEEVRQLMEKLREKQLS [E2Q]: 4.2. The same measure, in the same setting: the value for EDNMERIGEEVRQLMEKLREKQLS [E2D] was 4.48.

As to EENMERIGEEKRQLMEKLREKQLS [V11K], the protein stability index turned out to be 5.09. In the case of EENMERIGEERRQLMEKLREKQLS [V11R], the protein stability index worked out at 5.38.

With EENMERIGEEMRQLMEKLREKQLS [V11M], the protein stability index is 4.63. As to EENMERIGEESRQLMEKLREKQLS [V11S], the protein stability index was 3.41. For EENMERIGEEHRQLMEKLREKQLS [V11H], the protein stability index turned out to be 5.86.

With EENMERIGEEVRQVMEKLREKQLS [L14V], the protein stability index stood at 4.97. On the same count and under the same terms, the value for EENMERIGEEVRQCMEKLREKQLS [L14C] was 4.33. For the variant EENMERIGEEVRHLMEKLREKQLS [Q13H], the protein stability index turned out to be 4.04. Still for that read-out and setting: the value for EENMERIGEEVRILMEKLREKQLS [Q13I] was 4.23; that for EENMERIGEEVRQLMEKLRHKQLS [E20H] was 3.74; that for EENMERIGEEVRQLMEWLREKQLS [K17W] was 4.17.

Regarding EENMERIGEEVRQLMEGLREKQLS [K17G], the protein stability index is 4.86. Still for that read-out and setting: the value for EEPMERIGEEVRQLMEKLREKQLS [N3P] was 4.71. As for EEDMERIGEEVRQLMEKLREKQLS [N3D], the protein stability index was found to be 3.5.

Take EEGMERIGEEVRQLMEKLREKQLS [N3G]: the protein stability index amounted to 5.04. Take EENMERIGEDVRQLMEKLREKQLS [E10D]: the protein stability index was 4.76. On the same count and under the same terms, the same measure for EENMERIGEHVRQLMEKLREKQLS [E10H]: 4; for EENMERIGEGVRQLMEKLREKQLS [E10G]: 4.24; for EENMERIGEKVRQLMEKLREKQLS [E10K]: 3.89. On the same count and under the same terms, the value for EENMERIGEEVRQLMEKLRENQLS [K21N] was 4.61; that for EENMERIGEEVRQLMEKLREEQLS [K21E] was 3.26; that for EENMERIGEEVRQLMEKLRESQLS [K21S] was 4.25. Same read-out and setting: the value for EENMERIGEEVRQLMEKLREWQLS [K21W] was 4.07; that for EENMERIGEEVMQLMEKLREKQLS [R12M] was 4.62; that for EENMERIGEEVFQLMEKLREKQLS [R12F] was 4.12. With EENMEEIGEEVRQLMEKLREKQLS [R6E], the protein stability index was determined as 5.71. EENMEKIGEEVRQLMEKLREKQLS [R6K]: the protein stability index came to 4.8.

In the case of EENMEHIGEEVRQLMEKLREKQLS [R6H], the protein stability index was determined as 5.43. On the same count and under the same terms, the value for EENMEQIGEEVRQLMEKLREKQLS [R6Q] was 4.04. For EENMEVIGEEVRQLMEKLREKQLS [R6V], the protein stability index came to 4.81. The same measure, in the same setting: the same measure for EENMERICEEVRQLMEKLREKQLS [G8C]: 4.73; for EENMERIYEEVRQLMEKLREKQLS [G8Y]: 4.5; for EENMERIWEEVRQLMEKLREKQLS [G8W]: 3.44.

Take EENMERILEEVRQLMEKLREKQLS [G8L]: the protein stability index turned out to be 3.33. In the case of EENMERIGEEVRQLMWKLREKQLS [E16W], the protein stability index was 2.85. With EENMERIGEEVRQLEEKLREKQLS [M15E], the protein stability index amounted to 4.89. Still for that read-out and setting: the same measure for EENMERIGEEVRQLFEKLREKQLS [M15F]: 4.08. Regarding EENMERIGEEVRQLLEKLREKQLS [M15L], the protein stability index worked out at 4.98. Consider EENMERIGEEVRQLTEKLREKQLS [M15T], for which the protein stability index was determined as 5.18. On to EENMERIGEEVRQLWEKLREKQLS [M15W], for which the protein stability index came to 3.71.

On to EENMERIGEEVRQLIEKLREKQLS [M15I], for which the protein stability index is 4.87. For the variant EENMERIGEEVRQLVEKLREKQLS [M15V], the protein stability index worked out at 3.78. On the same count and under the same terms, the value for EENMERIGEEVRQLAEKLREKQLS [M15A] was 2.64. In the case of EENMCRIGEEVRQLMEKLREKQLS [E5C], the protein stability index came out at 3.74. For the variant EENMQRIGEEVRQLMEKLREKQLS [E5Q], the protein stability index is 4.01. Still for that read-out and setting: the same measure for EENMPRIGEEVRQLMEKLREKQLS [E5P]: 4.77; for EENMFRIGEEVRQLMEKLREKQLS [E5F]: 4.54; for EENMNRIGEEVRQLMEKLREKQLS [E5N]: 4.96. Same read-out and setting: the same measure for EENMERIGEEVRQLMEKLREKQLL [S24L]: 4.21. Same read-out and setting: the value for EENMERIGEEVRQLMEKLREKQLM [S24M] was 4.43.
